Data as given in the supplement of paper PMC10567573.

B1: TPD52L1 (parent)
chain: ISKKFGDMSYSIRHSISMPAMRNS

Variants of: B1
Test: protein stability index of a GFP-peptide fusion (GPS, HEK-293T) (PSI 1-6); higher = more stable
Conditions: c terminus: a fixed tail appended
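Note: lentivirally expressed fusions sorted by FACS into six bins by GFP to DsRed ratio, PSI derived from sequencing read proportions per bin multiplied by bin number.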

Row | Variant | protein stability index
1 | ISKKFGDMSYSIRHSISAPAMRNS | 2.64
2 | ISKKFGDMSYSIRHSISGPAMRNS | 2.42
3 | ISKKFGDMSYSIRHSISDPAMRNS | 2.88
4 | ISKKFGDMSYSIRHSISYPAMRNS | 1.87
5 | ISKKFGDMSYSIRHSISVPAMRNS | 1.83
6 | ISKKFGDMSYSIRHSISEPAMRNS | 2.74
7 | ISKKFGDMSYSIRHSISIPAMRNS | 2.53
8 | ISKKFGDMSYSIRHSISRPAMRNS | 2.34
9 | ISKKFGDMSYSIRHSISQPAMRNS | 2.77
10 | ISKKFGDMSYSIRHSISKPAMRNS | 2.31
11 | ISKKFGDMSYSIRHSISLPAMRNS | 2.01
12 | ISKKFGDMSYSIRHSISTPAMRNS | 2.58
13 | ISKKFGDMSYSIRHSISHPAMRNS | 2.6
14 | ISKKFGDMSYSIRHSISPPAMRNS | 2.64
15 | ISKKFGDMSYSIRHSISFPAMRNS | 1.8
16 | ISKKFGDMSYSIRHSISWPAMRNS | 1.7
17 | ISKKFGDMSYSIRHSISNPAMRNS | 2.28
18 | ISKKFGDMSYSIRHSISSPAMRNS | 2.05
19 | ISKKFGDMSYSIRHSISCPAMRNS | 2.21
20 | ISKKFGDMSYSIRHSISMGAMRNS | 2.6
21 | ISKKFGDMSYSIRHSISMMAMRNS | 2.58
22 | ISKKFGDMSYSIRHSISMNAMRNS | 2.04
23 | ISKKFGDMSYSIRHSISMAAMRNS | 1.98
24 | ISKKFGDMSYSIRHSISMDAMRNS | 2.2

Row | Variant | protein stability index
25 | ISKKFGDMSYSIRHSISMVAMRNS | 1.87
26 | ISKKFGDMSYSIRHSISMEAMRNS | 2.47
27 | ISKKFGDMSYSIRHSISMYAMRNS | 1.7
28 | ISKKFGDMSYSIRHSISMLAMRNS | 2.35
29 | ISKKFGDMSYSIRHSISMSAMRNS | 1.97
30 | ISKKFGDMSYSIRHSISMKAMRNS | 1.83
31 | ISKKFGDMSYSIRHSISMWAMRNS | 1.71
32 | ISKKFGDMSYSIRHSISMCAMRNS | 1.76
33 | ISKKFGDMSYSIRHSISMFAMRNS | 1.87
34 | ISKKFGDMSYSIRHSISMHAMRNS | 2.01
35 | ISKKFGDMSYSIRHSISMQAMRNS | 2.33
36 | ISKKFGDMSYSIRHSISMIAMRNS | 2.6
37 | ISKKFGDMSYSIRHSISMRAMRNS | 1.9
38 | ISKKFGDMSYSIRHSISMTAMRNS | 2.17
39 | ISKKFGDMSYSIRHSISMPAWRNS | 2.79
40 | ISKKFGDMSYSIRHSISMPACRNS | 3.31
41 | ISKKFGDMSYSIRHSISMPAHRNS | 2.46
42 | ISKKFGDMSYSIRHSISMPARRNS | 2.57
43 | ISKKFGDMSYSIRHSISMPASRNS | 2.46
44 | ISKKFGDMSYSIRHSISMPAGRNS | 2.4
45 | ISKKFGDMSYSIRHSISMPAIRNS | 2.39
46 | ISKKFGDMSYSIRHSISMPAKRNS | 3.21
47 | ISKKFGDMSYSIRHSISMPALRNS | 2.27
48 | ISKKFGDMSYSIRHSISMPANRNS | 2.68

Row | Variant | protein stability index
49 | ISKKFGDMSYSIRHSISMPAERNS | 3.36
50 | ISKKFGDMSYSIRHSISMPAVRNS | 2.53
51 | ISKKFGDMSYSIRHSISMPAARNS | 2.82
52 | ISKKFGDMSYSIRHSISMPAFRNS | 2.31
53 | ISKKFGDMSYSIRHSISMPAYRNS | 2.46
54 | ISKKFGDMSYSIRHSISMPADRNS | 2.75
55 | ISKKFGDMSYSIRHSISMPAPRNS | 2.54
56 | ISKKFGDMSYSIRHSISMPATRNS | 2.49
57 | ISKKFGDMSYSIRHSISMPAQRNS | 2.33
58 | ISKKFGDMSYSIRHSCSMPAMRNS | 2.02
59 | ISKKFGDMSYSIRHSRSMPAMRNS | 2.81
60 | ISKKFGDMSYSIRHSVSMPAMRNS | 2.32
61 | ISKKFGDMSYSIRHSASMPAMRNS | 2.76
62 | ISKKFGDMSYSIRHSSSMPAMRNS | 2.77
63 | ISKKFGDMSYSIRHSKSMPAMRNS | 2.98
64 | ISKKFGDMSYSIRHSNSMPAMRNS | 2.61
65 | ISKKFGDMSYSIRHSDSMPAMRNS | 2.6
66 | ISKKFGDMSYSIRHSGSMPAMRNS | 2.51
67 | ISKKFGDMSYSIRHSWSMPAMRNS | 1.97
68 | ISKKFGDMSYSIRHSMSMPAMRNS | 2.9
69 | ISKKFGDMSYSIRHSHSMPAMRNS | 2.36
70 | ISKKFGDMSYSIRHSQSMPAMRNS | 2.72
71 | ISKKFGDMSYSIRHSLSMPAMRNS | 2.46
72 | ISKKFGDMSYSIRHSFSMPAMRNS | 1.61

Row | Variant | protein stability index
73 | ISKKFGDMSYSIRHSPSMPAMRNS | 2.99
74 | ISKKFGDMSYSIRHSYSMPAMRNS | 2.12
75 | ISKKFGDMSYSIRHSTSMPAMRNS | 2.67
76 | ISKKFGDMSYSIRHSESMPAMRNS | 3.25
77 | ISKKFGDMSYSIRHSISMPAMSNS | 2.13
78 | ISKKFGDMSYSIRHSISMPAMNNS | 2.79
79 | ISKKFGDMSYSIRHSISMPAMPNS | 2.34
80 | ISKKFGDMSYSIRHSISMPAMENS | 2.18
81 | ISKKFGDMSYSIRHSISMPAMFNS | 2.22
82 | ISKKFGDMSYSIRHSISMPAMINS | 1.85
83 | ISKKFGDMSYSIRHSISMPAMQNS | 2.3
84 | ISKKFGDMSYSIRHSISMPAMLNS | 1.82
85 | ISKKFGDMSYSIRHSISMPAMYNS | 1.88
86 | ISKKFGDMSYSIRHSISMPAMMNS | 2.25
87 | ISKKFGDMSYSIRHSISMPAMWNS | 1.65
88 | ISKKFGDMSYSIRHSISMPAMVNS | 1.8
89 | ISKKFGDMSYSIRHSISMPAMKNS | 2.75
90 | ISKKFGDMSYSIRHSISMPAMDNS | 2.52
91 | ISKKFGDMSYSIRHSISMPAMHNS | 2.56
92 | ISKKFGDMSYSIRHSISMPAMGNS | 2.66
93 | ISKKFGDMSYSIRHSISMPAMTNS | 2.6
94 | ISKKFGDMSYSIRHSISMPAMCNS | 1.97
